The values that follow are results of earlier work, collected in paper PMC2663012.

Usually Kd stands for the constant that tells how readily two partners part at equilibrium.

The data set deals with PKR (Homo sapiens) (UniProt P19525). The experiment in a line: analytical ultracentrifugation.

PKR (from UniProt P19525): the Kd is 450 µM.
